# B1: OR4K15 (parent)
# chain: GUUAACGGUCAUAGGCCAUGGAAACUAGGAGCACCAUUUCGCUGCCAGUGAAGAAAUGAACAAAGAAAAUCUGGGCCAGGCAGGCAUCAAAAGAAAUAGUCUUGCGCUCAACCAGAAAGUCUGUAAUCAUUUUAAGGGUA
# Variants of: B1
# Test: self-cleavage, relative activity (ratio to wild type); higher = more cleavage; in vitro, sequencing; the parent is a self-cleaving ribozyme
row,Variant,self-cleavage
1,GUUAGCGGUCAUAGGCCAUGGAAACUAGGAGCACCAUUUCGCUGCCAGUGAAGAAAUGAACAAAGAAAAUCUGGGCCAGGCAGGCGUCAAAAGAAAUAGUCUUGCGCUCAACCAGAAAGUCUGUAAUCAUUUUAAGGGUA [A5G A86G],0.63
2,GUUAACGGUCAUAGGCCAUGGAAACUAGGAGCACCAUUUCGCUGCCAGUGAAGAAAUGAACAAAGAAAAACUGGGCCAGGCAGGCAUCAAAAGAAAUAGUCUUGCGCUCAACCAGAAGGUCUGUAAUCAUUUUAAGGGUA [U70A A118G],0.37
3,GUCAACGGUCAUAGGCCAUGGAAACUAGGAGCACCAUUUCGCUGCCAGUGAAGAAAUGAACAAAGAAAAUCUGGGCCAGGCAGGCAUCAAAAGAAAUAGUCUUGCGCUCAGCCAGAAAGUCUGUAAUCAUUUUAAGGGUA [U3C A111G],0.03
4,GUUAACGGUCAUAGGCCAUGGAAGCUAGGAGCACCAUUUCGCUGCCAGUGAAGAAAUGAACAAAGAAAAUCUGGGCCAGGCAGGCAUCAAAAGAAAUAGUCUUGCGCUCAACCAGAAAGUCUGAAAUCAUUUUAAGGGUA [A24G U124A],0.74
5,GUUAACGGUCAUAGGCCAUGGAAACUAGGAGCACCAUUUCGCUGCCAGUGAAGAAAUGAACAAAGAAAAUCUGGGCCAGGCAGGCAUCAAAGGAGAUAGUCUUGCGCUCAACCAGAAAGUCUGUAAUCAUUUUAAGGGUA [A92G A95G],1.46
6,GUUAACGGUCAUAGGCCAUGGAAACUAGGAGCACCAUUUCGCUGCCAGUGAAGAAAUGAACAAAGAAAAUCUGGGCCAGGCAGGCAUCAAAAGAAAUAGUCUUGCGCUCAACCAGAAAGUCUGUAAUCACAUUAAGGGUA [U130C U131A],0.25
7,GUUAACGGUCAUAGGCCAUGGAAACUAGGAGCACCAUUUCGCUGCCAGUGAAGAAAUGAACAAAGAAAAUCUGGGCCAGGCAGGCACCAAAAGAAAUAGUCUUGCGCUCAACCAGAAAGUCUGUAAUCUUUUUAAGGGUA [U87C A129U],0.73
8,GUUAACGGUCAUAGGCCAUGGAAACUAGGAGCACCAUCUCGCUGCCAGUGAAGAAAUGAACAAAGAAAAUCGGGGCCAGGCAGGCAUCAAAAGAAAUAGUCUUGCGCUCAACCAGAAAGUCUGUAAUCAUUUUAAGGGUA [U38C U72G],0.27
9,GUUAACGGUCAUAGGCCAUGGAAACUCGGAGCACCAUUUCGCUGCCAGUGAAGAAAUGAACAAAGAAAGUCUGGGCCAGGCAGGCAUCAAAAGAAAUAGUCUUGCGCUCAACCAGAAAGUCUGUAAUCAUUUUAAGGGUA [A27C A69G],1.34
10,GUUAACGGUCAUAGGCCAUGGAAACUAGGAGCACCACUUCGCUGCCAGUGAAGAAAUGAACAAAGAAAAUCUGGGCCAGGCAGGCAUCAAAAGAAAUAGUCUUGCGCUCAACCAGAAAGUCAGUAAUCAUUUUAAGGGUA [U37C U122A],1.4
11,GUUAACGGUCGUAGGCCAUGGAAACUAGGAGCACCAUUUCGCUGCCAGUGAAGAAAUGAACAAAGAAAAUCUGGGCCAGGCAGUCAUCAAAAGAAAUAGUCUUGCGCUCAACCAGAAAGUCUGUAAUCAUUUUAAGGGUA [A11G G84U],0.53
12,GUUAACGGUCAUAGGCCAUGGAAACUAGGAGCACCAUUUCGCUGCCAGUGAAGAAAUGAACAAAGAAAAUCUGGGCCAGGUAGGCAUCAAAAGAAAUAGUCUUGCGCUCAACCAGAAAGUCUGUAAUCAUUCUAAGGGUA [C81U U132C],0.5
13,GUUAACGGUCAUAGGCCAUGGAAACUAGGAGCACCAUUUCGCUGCCAGUGAAGAAAUGAACAAAGGAAAUCUGGGCCAGGCAGGCAUCAAAAGAAAUAGUCUUGCGCUCAACCAGAAAGUCUGUGAUCAUUUUAAGGGUA [A66G A125G],0.25
14,GUUAACGGUCAUAGGCCAUGGAAACUAGGAGCACCAUUUCGCUGCCAGUGAAGAAAUGAACAACGAAAACCUGGGCCAGGCAGGCAUCAAAAGAAAUAGUCUUGCGCUCAACCAGAAAGUCUGUAAUCAUUUUAAGGGUA [A64C U70C],1.18
15,GUUAACGGUCAUAGGCCAUGGAAACUAGGAGCACCAUUUCGCUGCCAGUGAAGAAAUGAACAAAGAAAAUCUGGGCCAGGCAGGCAUCAAAAGAAAUAGUCUUGCGCUCAACCAGAGAGUCUGUAAUCAUUUUAAGGCUA [A117G G138C],2.13
16,GUUAACGGUCAUAGGCCAUGGAAACUAGGAGCACCAUCUCGCUGCCAGUGAAGAAAUGAACAAAGAAAAUCUGGGCCAGGCAGGCAUCAAAAGAAAUAGUCUUGCGCUCAACCAGAAAGUCUGUAACCAUUUUAAGGGUA [U38C U127C],0.66
17,GUUAACGGUCAUAGGCCAUGGAAACUAGGAGCACCAUUUCGCUGCCAGUGAAGAAAUGAACAAAGUAAAUCUGGGCCGGGCAGGCAUCAAAAGAAAUAGUCUUGCGCUCAACCAGAAAGUCUGUAAUCAUUUUAAGGGUA [A66U A78G],0.3
18,GUUAACGGUCAUAGGCCAUGGAAAAUAGGAGCACCAUUUCGCUGCCAGUGAAGAAAUGAACAAAGAAAAUCUGGGCCAGGCAGGCAUCAAAAGAAAUAGUCUUGCGCUCAACCAGAAAGUCCGUAAUCAUUUUAAGGGUA [C25A U122C],0.72
19,GUUAACGGUCAUAGGCCAUGGAAAUUAGGAGCACCAUUUCGCUGCCAGUGAAGAAAUGAACAAAGAAAAUCUGGGCCAGGCAGGCAUCAAAAGAAAUAGUCUUGCGCUCAACCAGAAAGACUGUAAUCAUUUUAAGGGUA [C25U U120A],2.95
20,GUUAACGGUCAUAGGCCAUGGAAACUAGGAGCACCAUUUCGCUGCCAGUGAAGAAAUGAACAAAGAAAAUCUGGGCCAGGCAAGCAUCAAAAGAAAUAGUCUUGCGCUCAACCAGAAAGUCUGUAAUCAUCUUAAGGGUA [G83A U131C],1.28
21,GUUAACGGUCAUAGGCCUUGGAAACUAGGAGCACCAUUUCGCUGCCAGUGAAGAAAUGAACAAAGAAAAUCUGGGCCAGGCAGGCAUCAAAAGAAAUAGUCUUGCGCUCAGCCAGAAAGUCUGUAAUCAUUUUAAGGGUA [A18U A111G],0.03

# From the RNAGym collection of RNA variant scans (doi:10.7554/elife.90254)
